Measured values from US20230115257A1 (published 2023).
Numbering of substitutions follows the chain as printed.

B1: 8-N24-A (antibody, V domains shown)
VH: QVQLQQPGAELVKPGASVKVSCKASGYTFTSYWMHWVKQRPGQGLEWIGRIHPSDSDTNYYQKFKGKATLSVDKSSSTAYMQLSSLTSEDSAVYYCAIPLYSYDNSGGYYPMDYWGQGTSVTVSS
VL: DIVMTQSQKFMSTSVGDRVTITCKASQNVRTAVAWYQQKPGQSPKKLIYLASNRHTGVPDRFTGSGSGTDFTLAISNVQSEDLADYFCLQHWNYPFTFGSGTRLEIK
B2: 10-B11-A (antibody, V domains shown)
VH: B1 VH
VL: B1 VL
B3: 9-P9-A (antibody, V domains shown)
VH: DVKLVESGEGLVKPGGSLKLSCAASGFSFSNFGMSWVRQTPEKRLEWVAYISSGGDYIYYADTVKGRFTISRDNARNTLYLQMSSLKSEDTAIYYCTRGYFDYWGQGTTLTVSS
VL: DVLMTQTPLSLPVSLGDQASISCRSSQSIVHSNGNTYLEWYLQKPGQSPKLLIYTVSNRFSGVPDRFSGSGSGTDFTLKISRVEAEDLGVYYCFQGSHVPYTFGGGTKLEMR
B4: 2-P2-A (antibody, V domains shown)
VH: EVQLQQSGAELVRPGSSVKMSCKTSGYTFTSYGINWVKQRPGQGLEWIGYIYIGNGYTEYNEKFKGKATLTSDTSSSTAYMQLSSLTSEDSAIYFCARGGVDYWGQGTTLTVSS
VL: B3 VL with T55K, M111I, R112K
B5: 3-E13-A (antibody, V domains shown)
VH: EVQLQQSGPELVKPGASVKMSCKASGYTFTDYNIHWVKQSHGKSLEWIGYINPNNGGTDYNQKFQGKATLTVNKSSSTAYMELRSLTSEDFAVYYCARGGFYGNYGAYYGMDFWGQGTSVTVSS
VL: DIQMTQSPASLSASVGETVTITCRTSENIYSHLAWYQQTQGKSPQLLVYNAKTLAEGVPSRFSGSGSGTHFSLKINSLQPEDFGSYYCQHHYGIPPEFGGGTKLEIK
B6: 6-C19-A-WT (antibody, V domains shown)
VH: B5 VH with N73D, F91S, A107S
VL: B5 VL with Q45H, H70Q, Y87F
B7: 2-J9-A (antibody, V domains shown)
VH: B5 VH with F91S
VL: B5 VL with A51T, S63T, H70Q
B8: 9-L13-A (antibody, V domains shown)
VH: QVQLKESGPGLVAPSQSLSITCTVSGFSLTSYAISWVRQPPGKGLEWLGLIWTGGGTNYNSALKSRLSISKDNSKSQIFLKMNSLQTDDTARYYCARGPPLIYYGDLYYFDYWGQGTTLTVSS
VL: DIQMTQSPSSLSASLGGKVTITCKASQDINKYIAWYQHKPGKGPRLLIHYTSTLQPGIPSRFSGSGSGRDYSFSISNLEPEDIATYYCLQYDNLWTFGGGTKLEIK
B9: 9-J11-A (antibody, V domains shown)
VH: QVQLQQSGAELVKPGASVKMSCMASGYTFTTYPIEWMKQIHGKSLEWIGNFHPYNDDSKYNEKFKGKATLSVEKSSSTVYLELSRSTSDDSAVYYCARGSYGPYWYFDVWGTGTTVTVSS
VL: DIQMTQSPASLSASVGETVTITCRASGDIHNYLVWYQQKQGKSPQLLVYNAKALADGVPSRFSGSGSGTQYSLKINSLQPDDFGSYYCQHFWSIPYTFGGGTKLEIK
B10: 5-H22-A (antibody, V domains shown)
VH: QVQLQQSGAELVRPGASVTLSCKASGYTFTDYEMHWMKQTPVHGLEWIGAIDLETGGTVYNQKFKGKAILTADKSSNTAYMALRSLTSEDSAVYYCTREFPHYYGSRYGFPYWGQGTLVTVSA
VL: QIVLTQSPAIMSASPGEKVTITCSASSSVSYMHWLQQKPGTSPKLWIYSTSNLASGVPARFSGSGSGTSYSLTISRMEAEDAATYYCQQRSSYPYTFGGGTKLEIK
B11: 4-C3-A (antibody, V domains shown)
VH: EVQLQQSGPELVKPGASVKISCKASGYSFTGYYMHWVKQSHGNILDWIGYIYPYNGVSSYNQKFKGKATLTVDKSSSTAYMELRSLTSEASAVYYCARAYGSSYDYYYGLDYWGQGTSVTVSS
VL: DIVLTQSPASLAVSLGQRATISCKASQSVDYDGAGYMNWYQQKPGQPPKLLISSASNLQSGIPARFSGSGSGTDFTLNIHPVEEEDAATYYCQQSNDDPYTFGGGTKLEIK
B12: 6-L8-A (antibody, V domains shown)
VH: EVQLQQSVAELVRPGASVKLSCTPSGFNIKNTYMHWMKQRPEQGLEWIGRINPANDDTKYAPKFQDKATITADTSSNTAYLQLSSLTSEDTAIYYCVYDVRWYFDVWGTGTTVTVSS
VL: DVVMTQTPLSLPVSLGDQASISCRSSQGLVHSNGNTYLHWYLQKPGQSPKLLIYKVSNRFSGVPDRFSGSGSGTDFTLKISRVEAEDLGVYFCSQSTHVPPTFGAGTKLELK
B13: 4-K16-A (antibody, V domains shown)
VH: QIQLVQSGPELKKPGETVKISCKASGYTFTTYGMSWVKQAPGKGLKWMGWMSTYSGVPTYADDFKGRFAFSLETSASTAYLQINNLKNEDTATYFCASGDVGYWGQGTTLTVSS
VL: DIVMTQSQKFMSTSVGDRVSVTCKASQNVGTNVAWYQQKPGQSPKALIYSASYRYSGVPDRFTGSGSGTDFTLTISTVQSEDLAEYFCQQYNIYPSTFGGGTKLEIK
B14: 10-J24-A (antibody, V domains shown)
VH: EVQLVESGGGLVKPGGSLKLSCAASGFTFSSYAMSWVRQNPAKRLEWVATISGGGGFTYYPDSVKGRFTISRDNAKNTLYLQMNSLRSEDTAMYYCARDEDGKHDYFDYWGQGTTLTVSS
VL: DIVMTQSHKFMSTSVGDRVSITCKASQDVGTAVAWYQQKPGQSPKLLIYWASTRHTGVPDRFTGSGSGTDFTLTISNVQSEDLADYFCQQYASYPLTFGGGTKLVIK
B15: 6-N1-A (antibody, V domains shown)
VH: EVQLQQSGPELVKPGASVKISCKASGYTFTDYYMNWVQQSHGKSLEWIGDINPNNGGIRYNQNFKGKATLTVEKSSSTAYMELRSLTSEDSAVYYCARRQVFYDGYYDYAMDYWGQGTSVTVSS
VL: DIVLTQSPASLAVSLGQRATISCRASQSVSTSSYSYMHWYQQKPGQPPKLLIKYASNLESGVPARFSGSGSGTDFTLNIHPVEEEDTATYFCQHNWEIPPTFGGGTKLEIK
B16: 2-O15-A (antibody, V domains shown)
VH: QVQLQQSGAELVRPGASVKLSCKASGYTFTDCEMHWVKQTPVHGLEWIGVIDPETGDTAYNQKFKGKATLTADKSSSTAYMELRSLTSEDSAVYYCTRRRDYGNPYWYFDVWGAGTTVTVSS
VL: EIVLTQSPALMAASPGEKVTITCSVSSSISSSNLHWYQQKSGTSPKPWIYGTSNLASGVPVRFSGSGSGTSYSLTISSMEAEDAATYYCQQWTSYPYTFGSGTKLEIK
B17: 6-C19-A (antibody, V domains shown)
VH: QIQLVQSGPELKKPGETVKISCKASGNTFTTAGMQWVQKMPGKGFKWIGWINTHSGEPKYAEDFKGRFAFSLETSASTAYLQISNLKNEDTATYFCARYGDYYYFDCWGQGTTLTVSS
VL: B9 VL with D28N, V34A, A53T, D81E, Y86F, S93T, I94T, Y96W, T97S
B18: 9-M12-A (antibody, V domains shown)
VH: EVQLVESGGDLVKPGGSLKLSCTASGFTFSSYGMSWVRQTPDKRLEWVTTISSGGGYTYVPDSVKGRFTISRDNAKNTLYLHMSSLKSEDTAMYFCARPLIPTMVEAFDYWGQGTSLTVSS
VL: SIVMTQTPKFLPVSAGDRVTMTCKASQSVGNNVAWYQQKPGQSPKLLIYYASNRYTGVPDRFTGSGSGADFTFTISSVQVEDLAVYFCQQHYSSPFTFGTGTKLEIK
B19: 4-A22-A (antibody, V domains shown)
VH: EVQLQQSGPELVKPGASVKMSCKASGYTFTSYVMHWVKQKPGQGLEWIGYINPYNDGTEYNEKFKGKATLTSDKSSSTAYMELSSLTSEDSAVYYCAREAYRYFDVWGTGTTVTVSS
VL: DIQMTQSPASLSVSVGETVTITCRASENIYSNLAWYQQKQGKSPQLLVYAATNLAEGVPSRFSGSGSGTQYSLKINSLQSEDFGSYYCQHFWGTPWTFGGGTKLEIK
B20: 2-B20-A (antibody, V domains shown)
VH: QIQLVQSGPELKKPGETVKISCKASGYTFTTYGMSWVKQAPGKGLKWMGWINTFSGLPTYADDFNGRFAFSLETSASTAYLQINNLKDEDTATYFCARVKVHDYDGDFYGMDYWGQGTSVTVSS
VL: DVVLTQTPLSLPVNIGDQASISCKSTKSLLNSDGFTYLDWYLQKPGQSPQLLIYLVSNRFSGVPDRFSGSGSGTDFTLKISRVEAEDLGVYYCFQSNYLPLTFGAGTKLELK
B21: 10-I12-A (antibody, V domains shown)
VH: RVQLQQSGPELVRPGTSVKISCKASGYTFTDSYINWVTQRPGQGLDWIGWIFPGNDNTYYNEKFEGKATLTLDKSSSTAYMLLSSLTSEDSAVYFCARSGGLRLGFAYWGQGTLVTVSA
VL: NIVLTQSPASLAVSRGQRATISCRASESVDSYGHSFIHWYQQKPGQPPKILIYLASKLESGVPARFSGSGSRTDFTLTIDPVEADDAATYYCQQNNEDPWTFGGGTKLEIK

Biological target: SARS-CoV-2 B.1.1.529 spike trimer variant (SARS-CoV-2 B.1.1.529 (Omicron), UniProt P0DTC2 16-1213)
Assay: ELISA

Compared with B1, B2 is 3.6-fold lower in EC50: 4.19 nM for the first, 1.16 nM for the second. The second is the more potent here.

Going from B3 to B4, the EC50 rises from 0.29 nM to 0.58 nM (2-fold). The first is the more potent here.

B5 and B6 are within 1.5-fold of each other in EC50: 0.35 nM for the first, 0.36 nM for the second.

First: B7
Second: B8
The EC50 of the first is 27-fold lower: 0.4 nM for the first, 10.9 nM for the second.

First: B9
Second: B10
The EC50 of the first is 3.2-fold lower: 0.39 nM for the first, 1.26 nM for the second.

Compared with B11, B12 is 90-fold higher in EC50: 0.71 nM for the first, 64 nM for the second. The first is the more potent here.

Work on B13 yielded an EC50 of 0.94 nM.

Biological target: SARS-CoV-2 Beta (B.1.351) variant prefusion stabilized spike trimer protein (UniProt P0DTC2 14-1213)
Assay: ELISA

Compared with B14, B15 is 3.6-fold higher in EC50: 1.47 nM for the first, 5.29 nM for the second.

Compared with B16, B17 is 2.6-fold higher in EC50: 0.59 nM for the first, 1.53 nM for the second.

Going from B18 to B19, the EC50 rises from 0.47 nM to 5.97 nM (13-fold). The first is the more potent here.

In the case of B20, the EC50 is reported as 0.23 nM.

Biological target: SARS-CoV-2 BA.2 spike trimer variant (SARS-CoV-2 Omicron BA.2, UniProt P0DTC2 16-1213)
Assay: ELISA

Compared with B1, B2 is 3.9-fold lower in EC50: 3.25 nM for the first, 0.84 nM for the second. The second is the more potent here.

Compared with B3, B4 is 1.7-fold higher in EC50: 0.3 nM for the first, 0.5 nM for the second.

B5 and B6 are within 1.5-fold of each other in EC50: 0.35 nM for the first, 0.36 nM for the second.

Going from B7 to B8, the EC50 rises from 0.31 nM to 12 nM (39-fold).

Going from B9 to B21, the EC50 rises from 8.21 nM to 81.1 nM (9.9-fold). The first is the more potent here.

First: B11
Second: B12
The EC50 of the first is 6.7-fold lower: 3.07 nM for the first, 20.6 nM for the second.

B13 gave an EC50 of 3.87 nM.
